Measured values from article PMC12747932, “Crystal structures of Kif2A complexed with WDR5 reveal the structural plasticity of WIN-S7 sites” (Acta Biochimica et Biophysica Sinica, 2025).

How the values were obtained:
Assay in all cases: ITC; peptide (approximately 1 mM) titrated into protein (0.05 mM), 20°C, Buffer E (20 mM Tris-HCl, 200 mM NaCl, pH 7.5), single binding site model, duplicate
Settings in all cases: both partners purified
[1] = target: human WDR5 seven tandem WD-40 domain (residues 24–334) (human, UniProt P61964 24-334)
[2] = target: WDR5 Y191F variant (residues 24–334) (human, UniProt P61964 24-334, Y191F)
[3] = target: human WDR5 seven tandem WD-40 domain (residues 24–334) (human, UniProt P61964 24-334); remark: listed apart in the source

Kd [1] [nM] | dH [1] [kcal/mol] | stoichiometry N [1] | Kd [2] [nM] | dH [2] [kcal/mol] | stoichiometry N [2] | Kd [3] [nM] | dH [3] [kcal/mol] | stoichiometry N [3] | Binder
780 | -15.7 ± 0.13 | 0.91 | 960 | -9 ± 0.08 | 1.27 | – | – | – | GSARARPSQ (also called wild-type Kif2A; source: synthetic peptide (GenScript)) [Kif2A 114–122 peptide]
3720 | -10.6 ± 0.14 | 0.94 | – | – | – | – | – | – | GSARARPGQ (also called Kif2A^S121G; source: synthetic peptide (GenScript)) [Kif2A 114–122 (S121G) peptide]
– | – | – | – | – | – | 2160 | -13 ± 0.12 | 0.97 | GSARARPAQ [Kif2A S121A peptide]
6710 | -9.2 ± 0.11 | 1.19 | – | – | – | – | – | – | GSARARP (also called truncated Kif2A; source: synthetic peptide (GenScript)) [Kif2A 114–120 peptide]
